Series [1] concerns HeLa cells. The note with it: at the concentrations used, treatment of 2-4 h; previous report; cited from earlier work.
The subject of another series is 4T1 breast tumors. Put plainly: Ex vivo fluorescence imaging of tumor and organs after IV Alexa546-peptides. The format is in vivo, mice. To be noted: after IV administration. Here is the method:
4T1 breast tumors were established by subcutaneous injection of 4T1 cells (8×10^5 cells/0.1 mL/flank) in the right flank of adult female BALB/c mice (about 19-22 g weight) obtained from Harlan Laboratories. When tumors reached about 6 mm in diameter single tail vein injections of 100 μl of 40 μM Alexa546-peptides were performed. […] At 4 h post-injection euthanization and necropsy was performed followed by ex vivo imaging of tumor, kidneys, liver, lungs and muscle. Mean fluorescence intensity of tumor and organs was calculated using Kodak software.

Series [2] concerns HeLa cells. Put plainly: Fluorescent microscopy with Trypan Blue quenching. The format is cell-based, Human. To be noted: 5 μM, 30 min at pH 6.2 versus 7.4. Here is the method: HeLa cells (8,000 cells per dish) were seeded in the center of a 35-mm dish with a 10-mm glass-bottom window coated with collagen (MatTek Corp). Next day cells were incubated with 5 μM of FITC-labeled c[E4W5C] (SEQ ID NO: 5) peptide for 30 min in DMEM medium without FBS at pH 7.4 or 6.2. Cells were washed 5 times at pH 7.4 and 0.4% Trypan Blue was added for 5 min ( 1/10 of the total volume). Fluorescent images were acquired with a Retiga CCD camera (Qimaging) mounted to an inverted Olympus IX71 microscope (Olympus America, Inc.).

Series [3] can be described thus: Steady-state tryptophan fluorescence of peptides in buffer and with POPC liposomes. Type of series: physicochemical. The note with it: for S, normalized area under the spectra, Pep-PC, pH3: POPC liposomes pH 3; for S, normalized area under the spectra, Pep-PC, pH3 / S, normalized area under the spectra, Pep-PC, pH8: normalized to peptide at pH 8 without POPC; for S, normalized area under the spectra, Pep-PC, pH8: POPC liposomes pH 8; for λmax, Pep-PC, pH3: in the presence of POPC liposomes at pH 3; for λmax, Pep-PC, pH3 / λmax, Pep-PC, pH8 / λmax, maximum position of the fluorescence spectrum, Pep, pH8: excitation 280 nm; for λmax, Pep-PC, pH8: in the presence of POPC liposomes at pH 8; for λmax, maximum position of the fluorescence spectrum, Pep, pH8: peptide in phosphate buffer pH 8, no liposomes. Here is the method:
Liposomes such as Large Unilamellar Vesicles (LUVs) were prepared by extrusion. POPC, 1-palmitoyl-2-oleoyl-sn-glycero-3-phosphocholine (Avanti Polar Lipids), or a mixture of POPC with 0.5% of 18:1 NBD-PE, 1,2-dioleoyl-sn-glycero-3-phosphoethanolamine-N-7-nitro-2-1,3-benzoxadiazol-4-yl ammonium salt (Avanti Polar Lipids) were dissolved in chloroform, desolvated on a rotary evaporator, and dried under high vacuum for several hours. The phospholipid film was then rehydrated in 10 mM phosphate buffer pH 8.0, vortexed until the lipid bilayer was completely dissolved, and repeatedly (15-21 times) extruded through the membranes with 50 nm pore sizes to obtain LUVs.
Freshly prepared peptides and POPC vesicles were mixed to have 5 μM of a peptide and 1.25 mM of lipids in the final solution. Steady-state fluorescence measurements were carried out on a PC1 spectrofluorometer (ISS, Inc.) under temperature control at 25° C. Tryptophan fluorescence was excited at 280 nm (there is no Phe or Tyr in the peptides) and recorded with the excitation and emission slits set at 1 nm. The polarizers in the excitation and emission paths were set at the “magic” angle (54.7o from the vertical orientation) and vertically (0°), respectively. Steady state CD measurements were carried out in MOS 450 spectropolarimeter (Bio-Logic, Inc.) with the same concentrations of peptide and lipids as it were used in fluorescence measurements.

The nature of series [4]: Dual quenching (acrylamide / 10-DN). Type of series: physicochemical. The note with it: POPC liposomes; for percentage of fluorescence quenching, Pep-PC + 10-DN pH3 / percentage of fluorescence quenching, Pep-PC + AC pH3: pH 3; for percentage of fluorescence quenching, Pep-PC + 10-DN pH8 / percentage of fluorescence quenching, Pep-PC + AC pH8: pH 8; for percentage of fluorescence quenching, Pep-PC + AC pH3 / percentage of fluorescence quenching, Pep-PC + AC pH8: acrylamide. The protocol:
POPC liposomes without and with 10% of the lipids replaced by 10-doxylnonadecane (10-DN) (Avanti Polar Lipids) were prepared in 10 mM citrate-phosphate buffer pH 8.0. Peptides and POPC liposomes were mixed to generate final concentrations of 7 μM peptide and 2.1 mM POPC without and with 10-DN. […] To the samples of POPC liposomes containing no 10-DN, acrylamide (Sigma-Aldrich) was added to have a final concentration of 235 mM in solution. Concentration of peptides in all samples was kept constant. To observe quenching of tryptophan fluorescence by 10-DN or acrylamide, the tryptophan fluorescence was recorded as described above. The appropriate POPC blanks were measured and subtracted from the measured spectra before analysis. The percentage of quenching was calculated.
To establish localization of the peptides within a lipid bilayer of the membrane, a dual quenching assay (Caputo G A & London E (2003) Biochemistry 42(11):3265-3274) was used (FIG. 6 and Table 8). Effective quenching of fluorescence by acrylamide would occur only for tryptophan residues exposed to polar parts of outer or inner leaflets of the bilayer. At the same time, tryptophan residues located in the middle of a membrane would be effectively quenched by 10-DN. The result of the dual quenching assay allows the determination of whether tryptophan residues are located in the middle of a membrane or close to the polar headgroups of the bilayer. […] Therefore, FRET assays were also performed (McIntyre J C & Sleight R G (1991) Biochemistry 30(51):11819-11827; Clausell et al. (2006) J Phys Chem B 110(9):4465-4471) (FIG. 7). First, POPC liposomes symmetrically-labeled with NBD dye were prepared. Then, membrane-impermeable dithionite was used to modify chemically and quench the fluorescence of NBD at the outer leaflet of the bilayer followed by removal of dithionite by gel filtration. As a result, asymmetrically-labeled liposomes with NBD only at the inner leaflet were obtained. The c[E4W5C] […] All other peptides are located at the outer leaflet of the bilayer at pH 8. Among c[(WE)4WC] (SEQ ID NO: 2), c[(WE)5WC] (SEQ ID NO: 3), and c[(WE)3WC] (SEQ ID NO: 1) peptides, the peptide with smallest cycle, c[(WE)3WC]

In series [5] the test system is HeLa cells. The format is cell-based, Human. The note with it: up to 4 μM, 3 h at pH 7.4 or 6.0, viability at 48 h. Here is the method: HeLa cells were loaded in the wells of 96-well plates (5,000 cells per well) and incubated overnight. Growth medium was replaced with the medium without FBS pH 6.0 or pH 7.4 containing increasing amounts of peptide-amanitin construct (0.5, 1, 2, and 4 μM). The construct was removed after 3 h. After 48 h of incubation in standard growth medium, a colorimetric reagent (CellTiter 96 AQueous One Solution Assay, Promega) was added for 1 h followed by measuring absorbance at 490 nm to assess cell viability. All samples were prepared in triplicate.

Regarding `CC[C@H](C)[C@@H]1NC(=O)CNC(=O)[C@@H]2Cc3c([nH]c4cc(O)ccc34)[S+]([O-])C[C@@H](NC(=O)CNC1=O)C(=O)N[C@@H](CC(N)=O)C(=O)N1C[C@H](O)C[C@H]1C(=O)N[C@@H]([C@@H](C)[C@@H](O)CO)C(=O)N2` (stereo partly drawn) [amanitin, alpha-amanitin], the “cell death by amanitin alone” value in the series with HeLa cells [1] is reported as “does not induce cell death”.

For the compound `N=C(N)NCCC[C@@H]1NC(=O)[C@H](CS)NC(=O)[C@H](Cc2c[nH]c3ccccc23)NC(=O)[C@H](Cc2c[nH]c3ccccc23)NC(=O)[C@H](Cc2c[nH]c3ccccc23)NC(=O)[C@H](Cc2c[nH]c3ccccc23)NC(=O)[C@H](Cc2c[nH]c3ccccc23)NC(=O)[C@H](CCCNC(=N)N)NC(=O)[C@H](CCCNC(=N)N)NC(=O)[C@H](CCCNC(=N)N)NC1=O` [c[R4W5C]], the “accumulation in tumor and other organs” value in the series with 4T1 breast tumors was “very minimal”.

In the case of “FITC-labeled peptide: c[E4W5C] peptide conjugated with Fluorescein-5-maleimide (cyclo(EEEEWWWWWC); also: conjugated with fluorescein-5-maleimide, site not given here)”, in the series with HeLa cells [2], the “fluorescent signal of cells after Trypan Blue quenching, low pH compared to normal pH” value is reported as “higher level of the fluorescent signal”.

In the case of c[(WE)3WC] (WEWEWEWC; cyclic), in series [3], the “S, normalized area under the spectra, Pep-PC, pH3” value (“S, normalized area … pH3” for short) is 1.7 ± 0.3; the “S, normalized area under the spectra, Pep-PC, pH8” value (shortened to “S, normalized area … pH8”) came to 0.9 ± 0.1; the “λmax, Pep-PC, pH3” value is given as 341.7 ± 0.2 nm; the “λmax, Pep-PC, pH8” value amounted to 349.1 ± 0.7 nm. The “λmax, maximum position of the fluorescence spectrum, Pep, pH8” value (“λmax, maximum position” below) in series [3] came to 351.0 ± 0.2 nm. In addition, in series [4], the “percentage of fluorescence quenching, Pep-PC + 10-DN pH3” value (“percentage … Pep-PC + 10-DN pH3” below) was 47%; the “percentage of fluorescence quenching, Pep-PC + 10-DN pH8” value (“percentage … Pep-PC + 10-DN pH8” for short) came to 6%; the “percentage of fluorescence quenching, Pep-PC + AC pH3” value (from here on “percentage … Pep-PC + AC pH3”) is listed as 63%; the “percentage of fluorescence quenching, Pep-PC + AC pH8” value was 83%.

As to c[(WE)5WC] (WEWEWEWEWEWC; cyclic), in series [3], the “S, normalized area … pH3” value is on record as 2.1 ± 0.3; the “S, normalized area … pH8” value was found to be 1.5 ± 0.3; the “λmax, Pep-PC, pH3” value was 341.2 ± 0.4 nm; the “λmax, Pep-PC, pH8” value was found to be 346.7 ± 1.2 nm. Moreover, the “λmax, maximum position” value in series [3] was determined as 350.3 ± 0.2 nm. In series [4], the “percentage … Pep-PC + 10-DN pH3” value was determined as 40%; the “percentage … Pep-PC + 10-DN pH8” value amounted to 1.3%; the “percentage … Pep-PC + AC pH3” value is recorded as 68%.

As to “c[E4W5C]-GMBS-amanitin (cyclo(EEEEWWWWWC); also: GMBS-linked amanitin conjugate)”, the “cell death / cytotoxic effect of peptide-amanitin construct” value with HeLa cells [5] is reported as “reduced significantly at both pHs”.

For the compound l(CW(EW)4) (CWEWEWEWEW), in series [3], the “S, normalized area … pH3” value is given as 1.6 ± 0.4; the “S, normalized area … pH8” value amounted to 2.3 ± 0.4; the “λmax, Pep-PC, pH3” value turned out to be 339.8 ± 0.6 nm; the “λmax, Pep-PC, pH8” value amounted to 346.6 ± 0.7 nm. In addition, in series [3], the “λmax, maximum position” value was found to be 353.0 ± 0.7 nm. In series [4], the “percentage … Pep-PC + 10-DN pH3” value is recorded as 31%; the “percentage … Pep-PC + 10-DN pH8” value is recorded as 20%; the “percentage … Pep-PC + AC pH3” value is recorded as 56%; the “percentage of fluorescence quenching, Pep-PC + AC pH8” value is reported as 81%.

The record behind these values is US11274126B2, “pH-sensitive cyclic peptides” (University of Rhode Island Board of Trustees, priority 2016, dated 2022).
